According to the DeepSol protein solubility set:

Assay: soluble on expression in E. coli; label from the status in PepcDB or PDB records

Row | Sequence | soluble on expression in E. coli
1 | MAGDPNSMKRKPAVAGLFYPSRRDELIEQIRMCFLDKRIGPGKLPGPVETKLQNPIGLVSPHAGYIYSGPVAAWGFLEAVKFGEPSVVVIIGPNHTGLGRPVGVWPEGEWETPLGTVPVNERAVEIVLSNSRYAEEDFMSHIREHSIEVQIPFLQFVFGEVSIVPICLMDQSPAVAEDLASALAKLVAEFPGVLIIASTDLNHYEDQRTTLRKDSYIIEAIEGMDPSLLYEYLVREDISMCGYGGVATLLNMDFENVRILKHATSGDVSGDTLEVVGYLSAILFLEHHHHHH | not soluble
2 | MAGDPNSMKYSDLRDFIAQLESRELLKRIDYPVSPHLEMTLVSDKVLRSGGPALLFTNTPNYNMPVLTNLFGTVERVALGMGEESIVALREIGKLLAALKEPDPPKGFKDAFSKLPLLKQALNMAPKYVSGAECQTHVWEKDEVDLTLLPIQTCWPGDVAPLITWGLVTTRGPHQSRENMGIYRQQLLSKNKLIMRWLSHRGGALDYQAWQQEYPKERFPVAVTLGADPATILAAVTPVPDTLSEYAFAGLLRGQRTRLTRCIGNDLHVPASAEIVLEGYLEPGNEAPEGPYGDHTGYYNEVQSFPVFTVERITHRDKPIYHSTYTGRPPDEPAILGVALNEVFIPLLQKQFPEIVDFYLPPEGCSYRLAVVTIKKQYPGHAKRIMMAVWSFLRQFMYTKFVIVCDDDVDARNWQDVIWAMTTRMDPSRDTVMVENTPIDYLDFASPVSGLGSKMGMDATSKWPGETQREWGKPITMDEDVLNRVNGYWSLLGLKLEHHHHHH | not soluble
3 | MAGLGELERAVMDHLWSTSEPQTVRQVHEALAARRELAYTTVMTVLQRLAKKHLVIQQRDDRAHRYLPVHQREELVASLMVDALQQADKSGSRAAALVHFVGQVGADEADALREALAALEAKERSTGDNQSGTVRAG | not soluble
4 | MAGLGHPAAFGRATHAVVRALPESLGQHALRSAKGEEVDVARAERQHQLYVGVLGSKLGLQVVELPADESLPDCVFVEDVAVVCEETALITRPGAPSRRKEVDMMKEALEKLQLNIVEMKDENATLDGGDVLFTGREFFVGLSKRTNQRGAEILADTFKDYAVSTVPVADGLHLKSFCSMAGPNLIAIGSSESAQKALKIMQQMSDHRYDKLTVPDDIAANCIYLNIPNKGHVLLHRTPEEYPESAKVYEKLKDHMLIPVSMSELEKVDGLLTCCSVLINKKVDS | not soluble
5 | MAGNSNLMIKTLRKISEILKKPPKASSESDVTVRDKACQALGSIKRLIGDTITAFIGPISTETAKIEKINQYQQEAAEEFKKFQETQPKAGGDGGAENSAENLDENQENSPEKAEKPQVLDAWELLEPEDCSKKIDKSVETQLIDKNWKERLAGAENVKKSMENAGRIEISERLTEISKLLMKIVEKDVNVNVGAISAQILAEIAKKSRFSFAPLALRAFPVVFDKLKDKKAILRDALVEFCDEAANTTPLSAYSEAVITALSNKNPQARQQTALFLSRFFAKNDPKTVETEAVKQLAEHILKTSNDADKEVREAALRIVAAVQKCLGEGVAKRLLAEVYDDKLKAEKLPPLIEELEKEFGSSASPEMLRLAKHYKIGASSTSAPPKTTAAGAPKRPSSAVAPRRAPPASAAPTRRAPSPKAPVVAPTRRAPSPKAPVASVAPVKPKPFVARPAPSFGKPRAAVAPARAPQITQRAPAATRPSTSAIRVTPIAPNVVRNGAPTTAQQAPRKPIGIARPQTSSGIAAPGAPRSRIAMPTTSSSSLARRPGSASSSVPRVPTGAASMTSSSRIRPPSRPGSRPGSRNE | not soluble
6 | MAGQVVVNDHLADKAGLQVPVEAEIRLKGEDIPFVSRGGLKLARALEEFGIDVADMTAIDVGASTGGFTDCLLQRGARKVYAVDVGYGQLAWKLRQDSRVVNLEKTNIRYLEPGALPETPGLAVIDASFISLDKVLPSTLRLIGEEGVIVALIKPQFEVGRGEVGKGGVVRDEEKHRRVIADVVALAEGLGLMVLGVTESPILGPKGNREFLIHLKKAVGETPPHNR | not soluble
7 | MAGRVPRLTGHCSILSRTYGHSLMDLAALRFYIAPGKKPVIAAGMPWYMALFGRDSLITSYQCCFIAPDIAFNTLRNLANLQGKEYNYFKDEEPGKILHELRFGEKTLLGKKPYSPYFGSADTCQLFLILLHEVFKWTGNKEFVNEFKEPALKALYWIDNFGDMDGDGYVEYKKRSKEGLDNHCWKDSGTSMIFSDSRLAEAPIATVEFQGYIYDAKIRLAELAEEVWDDPSFAEELRNQAKELKRRFNRDFWIEDRGGYFALGLDKNKEKIDSMTSNMGHLLWSGIVEDDRAGIIVKQLMSRDLYNGWGIRTLSSHDRGYNPIEYHNGTVWPHDNSLIAEGFIKYGYRDEANRIITNLLEASQYFDSRFPEVFAGYQRTEVDFPVSYPTSSIPQAWAAGASMLFLRLILGLEPDRKSQSIKIDPYLPQVIEDICVENIRLFNKKFSVFAGKGRSEIKLSEMAGDPLEHHHHHH | not soluble
8 | MAHHHHHHHRSEQIAAVRRMVEAYNTGKTDDVADYIHPEYMNPGTLEFTSLRGPELFAINVAWVKKTFSEEARLEEVGIEERADWVRARLVLYGRHVGEMVGMAPTGRLFSGEQIHLLHFVDGKIHHHRDWPDYQGTYRQLGEPWPETEHRRP | soluble
9 | MAHHHHHHMAASSPLGMANYVTGDPLGVAGQEAGKGAGALLAAVQQCSAELSHEFGDGVALMTGEPAAATTSSHASPLSPEQRVALSAGAVTCLSVASLPGTTDTAVAVVGTTVGTVALLLIEGSRAVYKVAECSLMEWSSGAITAQDAIVDVAFSMDPAGRPEFVGAASAGCVVVVDVQLLYRPSGNSSRSTDEEVGDTATDAPAAVVHRAEWHQATELWSNSALRAKAVEALERSSAQLVRHCCSDVFACSFVEADVVRILAPQRLQAAVAIDVALVVVLSSGALHYVERVVEGGSVRLLAEHHWQRLAKGAAFTSHASAATQGADSAAENDFSADGTSVHLVTDSRAVPHVIYRYRLSPYHVQACQDGGQTASGGGGNYSMAALALPCATESVTHVCDAHLHFSEKDAACHVVLAGTQRVPVGKVGYMSVASRVGSLGHAQQQQHAGVAGCRTLAWWAVVQNAVLPRQTFDRSALERQALQHQHQQQQQQLHDGHAFPPFRTNAGSPPFTVHVQSNTMALPCGLGTCPASALTSPATSSPATAGAGVASGVSAVGPGQGSGFAAAFMLTDILVLASGHELYVGDLRDVPRSAKTLPVPRPLRSFGSVVEGITAGPYMDARAVLVATGSRVAPVSLV | not soluble
10 | MAHHHHHHMAATKLGINGFGRIGRLVFRAAFGRKDIEVVAINDPFMDLNHLCYLLKYDSVHGQFPCEVTHADGFLLIGEKKVSVFAEKDPSQIPWGKCQVDVVCESTGVFLTKELASSHLKGGAKKVIMSAPPKDDTPIYVMGINHHQYDTKQLIVSNASCTTNCLAPLAKVINDRFGIVEGLMTTVHASTANQLVVDGPSKGGKDWRAGRCALSNIIPASTGAAKAVGKVLPELNGKLTGVAFRVPIGTVSVVDLVCRLQKPAKYEEVALEIKKAAEGPLKGILGYTEDEVVSQDFVHDNRSSIFDMKAGLALNDNFFKLVSWYDNEWGYSNRVLDLAVHITTS | soluble
11 | MAHHHHHHMAATNSPTEEEVVMRYQQLRQECLAMDSRISELENELHEHQLVADTLKPLNGDRRCHRLVGGALIERTVADILPELVENIKGIEEALAQLNKMLTEKQAAMDEYARKHGVTVAQRQGQTPAGGGGANNDEGEKKPMGADSRGVLV | soluble
12 | MAHHHHHHMADATLLHHLIEVLPKAELHVHIEGTLSPELLFELAKRNGVQIPYKTVEEVRVAYNFTDLQSFLDLYYEGMSVLITEDDFEDLAYAYTRVMHESRVVHAEPFFDPQGHLCRGVTFRVLYDGLMRGFRRGEAEFGVSVMLIFSFLRHLSEEECLALVLDDMHPDNGQYIRELFVAKAFVAVGLDSSELGHPPEKFARLYRYCREELKVPFLVAHAGEEGPPEYMRDAMSMLKVDRIDHGVAARLDQALCKDLREKRIPLTVCPTSNVALKVFQDRATCGAVVMDLILTEGLCVTINSDDPAYFGGDIRESFRILAETGRLTPATLKQLVLNSFSSSFIADDSKRAYKERVEKVFKDVCGGTYE | soluble
13 | MAHHHHHHMALTLSPVEAALATCVALRYFYAHALHLSAATRVAHSVGPAPHDLSDRFTANLPFEDYLQWGLESIYSDASSAEAHLCLEQLSSNLRDAIMTHANNMEFRFLDEAPSLFDTVLLTSLYLVRSRVLRMPLLSSTSNKPDSNCSVFGPGLDALNHCSTSPAAVVVVSAARRSVVVRARRRINRGEEITLDYRLTGSGRGVSRGHPSHNGSLLRGDVICMNDDWAARYLMN | not soluble
14 | MAHHHHHHMANGVTANSMRVSVKAPDLGAFPLDHYRECKSEIEEYYTCLRSNDYVTPMCREQVRAYLQCRMDRGLMKPADIEGFGIPETEFVPMRQHRADIRQQWLRQKMNQVTAVWESYRRDDLNVPDGYERPRGSDSGGRPQPLPGETNKT | not soluble
15 | MAHHHHHHMASPASTNPAHDHFETFVQAQLCQDVLSSFQGLCRALGVESGGGLSQYHKIKAQLNYWSAKSLWAKLDKRASQPVYQQGQACTNTKCLVVGAGPCGLRAAVELALLGARVVLVEKRIKFSRHNVLHLWPFTIHDLRALGAKKFYGRFCTGTLDHISIRQLQLLLLKVALLLGVEIHWGVKFTGLQPPPRKGSGWRAQLQPNPPAQLASYEFDVLISAAGGKFVPEGFTIREMRGKLAIGITANFVNGRTVEETQVPEISGVARIYNQKFFQSLLKATGIDLENIVYYKDETHYFVMTAKKQCLLRLGVLRQDLSETDQLLGKANVVPEALQRFARAAADFATHGKLGKLEFAQDARGRPDVAAFDFTSMMRAESSARVQEKHGARLLLGLVGDCLVEPFWPLGTGVARGFLAAFDAAWMVKRWAEGAGPLEVLAERESLYQLLSQTSPENMHRNVAQYGLDPATRYPNLNLRAVTPNQVQDLYDMMDKE | soluble
16 | MAHHHHHHMATDLDSFSTYIDHLILLLAARFHAPLEVSVEELLPSSMNLSAEAQCPWELVACSVQQALRTPQTAQERLLMRHLDVHHFSASVCRERARYMQWKLQECRRRRGDKQQLVQSPAVPSAARANTSSTVAASATAAGQPCDVACTSLHNDVCSLYKLVLQSLPSTLGGTESDDDEEDAQAPTTSVQSLASASEPSSFERVHEVFMRTPAEQERDELVARARDEFLSQVQALQSVYYEKYHRWMDVPASVLDPPPASSKQPASTDGAAAALESAAPQRGSESERAALLEALGAAAAPPPRHRKQANHASSSGAADWTEKPHTLASMLHQVQLRRPLRPSAVSDDVLESLYRARAETEEAPKNLCVASGLRSCPPAASTSATPSFAGGCADTITAEAVAVAPSSSQPSSSVAAVRKDTVPPASRRGRWQIVEYDDDDDGEG | not soluble
17 | MAHHHHHHMAVPHGMLISRNDITPDSLVDVPGDRKIVEQISNTMANSSLFKMEKEDHTLANLLRMKLHESPFVQIAGYRVPHPTKHNVELRVQTASNGTDAPVPAPKKALQDAVDGCLKDLEVFEEQLRREAQLKGLEASPS | not soluble
